Test results: the supplement of paper PMC10201428
± gives the standard deviation of the averaged measurements.

B1: library; a variant is named by its letters at N, in order (parent)
chain: AATGTTGTTGATGCAACCATAAAGTGATATTTAATAATTATTTATAATCAGCAACTTAACCACAAAACAACCATATATTGATATNTCACAAAACAACCATAANTTGATATTTTTGTGAATCGAGTATTTCAGCAAAACTACTGCAGTAAGAA

Experiments:
[1] = variants of: B1; experiment: relative integration efficiency (T-LR orientation) vs wild-type transposon end (log2 (normalized fold change)); transposon end mutated: left end; higher = more efficient transposition; conditions: with VchCAST RNA-guided transposition machinery (E. coli BL21(DE3) host, lacZ target)
Procedure, shortened: (§1)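 Barcode abundances in input plasmids and in genomic integration junctions were obtained by PCR amplification and Illumina sequencing. These came from E. coli BL21(DE3) co-transformed with a T7-driven effector plasmid and a pUC57 donor carrying 1549 left-end or 1849 right-end transposon variants, then plated with 0.1 mM IPTG at 37°C for 18 h. Relative integration efficiency is the output/input fold change, normalised to reference barcodes and log-transformed.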

[2] = variants of: B1; experiment: relative integration efficiency (T-RL orientation) vs wild-type transposon end (log2 (normalized fold change)); transposon end mutated: left end; higher = more efficient transposition; conditions: with VchCAST RNA-guided transposition machinery (E. coli BL21(DE3) host, lacZ target)
Procedure, shortened: as §1

Variant | relative integration efficiency (log2) [1] | relative integration efficiency (log2) [2]
CG A70C C71A C72A A73C | -2 ± 1.7 | -2.13 ± 0.84
CG A44G A46G T48G A50G C52A A53T C55A T56C T57A | -3.63 ± 2.8 | -4.04 ± 1.1
CG A107T T108A A109T T110A | -0.765 ± 0.3 | -0.783 ± 0.46
CG A88C C89A | 0.0423 ± 0.026 | 0.0174 ± 0.062
CG A77C T86G | 0.141 ± 0.0087 | -0.217 ± 0.029
CG A109T T110A | -0.674 ± 0.43 | -0.271 ± 0.27
CG A54T C55G | 0.202 ± 0.2 | -0.316 ± 0.29
CG A95T | -0.598 ± 0.89 | -0.00814 ± 0.24
CG A95G | -1.23 ± 0.42 | -0.845 ± 0.39
CG A95C | -0.179 ± 0.35 | -0.318 ± 0.063
CG A53T A54T C55G T56A | -0.3673 ± 0.0015 | -0.413 ± 0.41
CG A119C T120G C121A G122T A123C G124T T125G | -0.964 ± 0.063 | -0.304 ± 0.022
CG A88C C89A A90C A91C | -0.0905 ± 0.58 | -0.404 ± 0.32
CG A81T T82A A83T T84A | -0.679 ± 1.2 | -0.753 ± 0.74
CG A92T A93T | -0.29 ± 0.86 | -0.445 ± 0.23
CG A69C A70C C71A C72A | -1.64 ± 0.34 | -1.88 ± 0.72
CG A62C C63A | -0.193 ± 0.12 | 0.182 ± 0.065
CG A58T A59T | 0.226 ± 0.49 | -0.00421 ± 0.16
CG A109G | -0.737 ± 0.88 | -0.662 ± 0.16
CG A109T | 0.223 ± 0.47 | 0.209 ± 0.39
CG A109C | 0.0163 ± 0.22 | -0.193 ± 0.42
CG A59C C60A | -0.233 ± 0.25 | -0.0701 ± 0.0044
CG A93T C94G | -1.04 ± 0.89 | -1.35 ± 0.65
CG A59T C60G C61G A62T | 0.314 ± 0.15 | 0.00645 ± 0.092

Variant | relative integration efficiency (log2) [1] | relative integration efficiency (log2) [2]
CG A59G | 0.164 ± 0.45 | -0.0472 ± 0.057
CG A59T | 0.107 ± 0.13 | 0.0634 ± 0.055
CG A59C | 0.591 ± 0.26 | 0.072 ± 0.14
CG A67T | -0.588 ± 0.78 | -0.202 ± 0.27
CG A67C | -0.106 ± 0.44 | -0.129 ± 0.051
CG A67G | -0.325 ± 0.26 | -0.269 ± 0.083
CG A92C A93C | -0.222 ± 0.86 | -0.331 ± 0.24
CG A81T T82A | -1.34 ± 0.81 | -1.03 ± 0.48
CG A73T T74A A75T T76A | -1.64 ± 0.86 | -0.919 ± 0.62
CG A66C A67C C68A A69C | -0.943 ± 0.25 | -0.685 ± 0.37
CG A58C A59C C60A C61A | 0.829 ± 0.17 | 1.06 ± 0.036
CG A88G | -0.182 ± 0.22 | -0.24 ± 0.098
CG A88C | -0.0509 ± 0.39 | -0.148 ± 0.082
CG A88T | 0.112 ± 0.73 | 0.0226 ± 0.1
CG A67T C68G A69T A70T | -1.78 ± 0.54 | -1.55 ± 0.73
CG A66C A67C | -0.404 ± 0.29 | -0.0641 ± 0.033
CG A101T A102T | -0.713 ± 0.59 | -0.513 ± 0.27
TG A70C T76A T84A C87A | 0.577 ± 0.018 | -0.0929 ± 0.15
CG A99T T100A A101T A102T | -0.997 ± 0.78 | -1.06 ± 0.48
CG A96C | 0.848 ± 0.0087 | 0.7239 ± 0.0024
CG A96T | -0.52 ± 0.14 | -0.314 ± 0.13
CG A96G | -1.06 ± 0.18 | -0.704 ± 0.32
CG A95C A96C C97A C98A | -1.32 ± 1.8 | -2.14 ± 0.8
CG A109C T110G | -1.25 ± 1.3 | -0.936 ± 0.53

Variant | relative integration efficiency (log2) [1] | relative integration efficiency (log2) [2]
CG A65C A66C | 0.318 ± 0.48 | 0.0588 ± 0.077
CG A118C A119C T120G C121A G122T A123C G124T T125G | -0.0272 ± 0.24 | 0.0769 ± 0.16
CG A46C A47C T48G C49A | -2.09 ± 0.25 | -1.44 ± 0.53
CG A92T A93T C94G A95T | -3.64 ± 1.2 | -1.61 ± 0.83
CG A70T C71G C72G A73T | -2.15 ± 0.26 | -2.22 ± 0.88
CG A96T C97G C98G A99T | -2 ± 1.1 | -2.05 ± 0.9
AG A83C T84G T86G | -1.31 ± 0.49 | -0.668 ± 0.067
TG A70C T76A T86G | 0.145 ± 0.46 | -0.133 ± 0.18
CG A50G | -0.586 ± 0.44 | -0.168 ± 0.005
CG A50T | -0.977 ± 0.48 | -0.161 ± 0.19
CG A50C | -0.533 ± 0.31 | -0.119 ± 0.099
CG A119C | 0.11 ± 0.18 | -0.107 ± 0.1
CG A44T T45A | 0.734 ± 0.13 | 0.214 ± 0.11
CG A66T A67T C68G A69T | -1 ± 0.9 | -0.447 ± 0.35
CG A64G | -0.0623 ± 0.097 | -0.383 ± 0.14
CG A64T | -0.053 ± 0.081 | -0.229 ± 0.11
CG A64C | -0.814 ± 1.1 | -0.0626 ± 0.11
CG A50T G51C | -1.59 ± 0.97 | -0.729 ± 0.46
CG A58C | -0.0754 ± 0.25 | -0.223 ± 0.17
CG A58G | -0.0735 ± 0.46 | -0.101 ± 0.063
CG A58T | -1.76 ± 1.7 | -0.0803 ± 0.089
CG A90C | -0.155 ± 0.19 | -0.278 ± 0.11
CG A90T | -0.375 ± 0.31 | -0.404 ± 0.16
CG A90G | -0.331 ± 0.48 | -0.339 ± 0.053

Variant | relative integration efficiency (log2) [1] | relative integration efficiency (log2) [2]
CG A46G A47G C49G A50T G51C C52T A53C A54G A58C C60G | -3.701 ± 0.037 | -3.69 ± 1.2
CG A59T C60G | 0.263 ± 0.38 | -0.145 ± 0.073
CG A73C T74G | -2.3 ± 0.72 | -2.37 ± 0.86
CG A96C C97A | -2 ± 1 | -1.33 ± 0.57
CG A75G | -0.592 ± 0.42 | -0.877 ± 0.4
CG A75T | -0.0748 ± 0.42 | -0.289 ± 0.15
CG A75C | 0.0557 ± 0.24 | 0.219 ± 0.63
CG A47C T48G | -0.613 ± 0.46 | -0.656 ± 0.35
CG A62T | 1.22 ± 0.39 | 1.17 ± 0.29
CG A62G | 0.446 ± 0.39 | 0.318 ± 0.17
CG A62C | 0.284 ± 0.025 | -0.0795 ± 0.022
CG A109C T110G T111G T112G | -1.67 ± 0.36 | -1.4 ± 0.41
CG A77T T78A T79A G80C | -3.86 ± 2.7 | -2.18 ± 0.89
CG A88T C89G A90T A91T | -0.283 ± 0.86 | -0.432 ± 0.33
CG A70T C71G | -0.292 ± 0.66 | -0.898 ± 0.41
CG A69T A70T C71G C72G | -1.93 ± 1.4 | -1.77 ± 0.77
CG A109T T110A T111A T112A | -1.2 ± 0.55 | -1.22 ± 0.46
CG A102T | 0.323 ± 0.19 | -0.123 ± 0.24
CG A102G | -1.58 ± 1.1 | -0.825 ± 0.55
CG A102C | -1.3 ± 0.53 | -1.12 ± 0.46
CG A119C T120G | -0.429 ± 1.1 | -0.131 ± 0.072
CG A91T A92T | 0.705 ± 0.2 | 0.108 ± 0.066
GG A83T T84A T86A | -0.405 ± 0.36 | -0.604 ± 0.36
CG A73G | 0.14 ± 0.13 | 0.0329 ± 0.31

Variant | relative integration efficiency (log2) [1] | relative integration efficiency (log2) [2]
CG A73T | -0.055 ± 0.17 | -0.536 ± 0.45
CG A73C | -2.78 ± 1.5 | -1.14 ± 0.6
CG A65T A66T | 0.447 ± 0.39 | 0.107 ± 0.0079
CG A69C A70C | -0.684 ± 0.62 | -0.537 ± 0.29
CG A66T | 0.195 ± 0.21 | 0.0703 ± 0.19
CG A66C | 0.113 ± 0.11 | -0.147 ± 0.047
CG A66G | -0.258 ± 0.65 | 0.0591 ± 0.047
CG A53C A54C | 0.297 ± 0.47 | 0.0858 ± 0.13
CG A107T T108A | -0.991 ± 0.38 | -0.981 ± 0.55
CG A77T | -0.192 ± 0.066 | -0.217 ± 0.059
CG A77C | 0.611 ± 0.89 | 0.337 ± 0.052
CG A77G | 0.0745 ± 0.45 | -0.243 ± 0.024
CG A81C T82G | -1.43 ± 0.033 | -0.963 ± 0.26
CG A77C T78G | 0.461 ± 0.32 | 0.644 ± 0.21
CG A47C T48G C49A A50C | -1.93 ± 0.6 | -1.5 ± 0.48
CG A90C A91C A92C A93C | -0.132 ± 0.77 | -0.283 ± 0.31
CG A81C T82G A83C T84G | -1.87 ± 0.22 | -1.9 ± 0.68
CG A91C A92C A93C C94A | -0.269 ± 0.36 | -0.581 ± 0.55
CG A73T T74A | -0.734 ± 0.56 | -0.97 ± 0.4
CG A101C A102C | -1.64 ± 0.96 | -1.55 ± 0.55
